According to US20090068736A1 (TRUSTEES OF DARTMOUTH COLLEGE, published 2009):

Target: Mammalian (Human) 20S Proteasome (Mammalian (Human))
Assay: cell-based or functional assay

Row | Binder | I50 (µM), inhibition of chymotrypsin-like (ChT-L) peptidase activity of 20S proteasome, N-succinyl-LLVY-AMC substrate
1 | AARPRPPYLPR [AAR] | 14.5 µM
2 | ARRPRPPYLPR [A1] | 2.81 µM
3 | RRKPRPPYLPR [K3] | 0.819 µM
4 | ARRPRPPELPR [A1E8] | 49.4 µM
5 | KRRRPPYLPR [K1] | 0.595 µM
6 | RRRPRPPELPRW [E8W12] | 2.62 µM
7 | RAAPRPPYLPR [RAA] | 20.1 µM
8 | RRRPRPPYLPA [A11] | 0.685 µM
9 | RRRPRPPELPR [E8] | 2.37 µM
10 | RRRARPPYLPR [A4] | 4.99 µM
11 | RRAPRPPYLPR [A3] | 3.15 µM
12 | RARPRPPYLPR [A2] | 2.77 µM
13 | RKRPRPPYLPR [K2] | 0.543 µM
14 | RRRPRPPYLAR [A10] | 0.782 µM
15 | RRRPRAPYLPR [A6] | 1.22 µM
16 | RRRPRPPFLPRW [F8W12] | 0.034 µM
17 | RRRPRPPALPRW [A8W12] | 0.715 µM
18 | RRRPRPPYLPRPRPPPFFPPRLPPRIPPGFPPRFPPRFP [PR39] | 0.004 µM
19 | RRRPRPPYLPR [PR11] | 0.805 µM
20 | KKKPRPPYLPR [KKK] | 2.71 µM
21 | RRRPRPPYLPRW [W12] | 0.006 µM
22 | ARAPRPPYLPR [ARA] | 11.3 µM
23 | AAAPRPPYLPR [AAA-PR11] | > 100 µM
24 | KRRPRPPELPR [K1E8] | 6.34 µM
25 | RRRPRPAYLPR [A7] | 0.851 µM
26 | RRRPRPPYGPR [G9] | 0.137 µM
27 | RRRPAPPYLPR [A5] | 2.65 µM
